Details: Bos taurus; pH 7.2; 10 °C; Urea; Fluorescence; Sodium phosphate 25 mM; KCl 150 mM; whole UniProt chain shown

B1: Cellular tumor antigen p53 wild type, P67939 (protein)
chain: MEESQAELNVEPPLSQETFSDLWNLLPENNLLSSELSAPVDDLLPYTDVATWLDECPNEAPQMPEPSAPAAPPPATPAPATSWPLSSFVPSQKTYPGNYGFRLGFLQSGTAKSVTCTYSPSLNKLFCQLAKTCPVQLWVDSPPPPGTRVRAMAIYKKLEHMTEVVRRCPHHERSSDYSDGLAPPQHLIRVEGNLRAEYLDDRNTFRHSVVVPYESPEIDSECTTIHYNFMCNSSCMGGMNRRPILTIITLEDSCGNLLGRNSFEVRVCACPGRDRRTEEENLRKKGQSCPEPPPRSTKRALPTNTSSSPQPKKKPLDGEYFTLQIRGFKRYEMFRELNDALELKDALDGREPGESRAHSSHLKSKKRPSPSCHKKPMLKREGPDSD
  denaturant midpoint (higher = more stable): 5.21 M

— FireProtDB (doi:10.1016/j.jmb.2009.08.013)
